Test results published in patent publication US12104181B2, “Compositions and methods for treating viral infections targeting TRIM7” (THE BOARD OF REGENTS OF THE UNIVERSITY OF TEXAS SYSTEM, priority 2021, dated 2024).

B1: TRIM2: human RING type E3 ligase expressed from lentiviral vector (protein, UniProt Q9C040 1-744, looked up)
Tripartite motif-containing …: MASEGTNIPSPVVRQIDKQFLICSICLERYKNPKVLPCLHTFCERCLQNYIPAHSLTLSCPVCRQTSILPEKGVAALQNNFFITNLMDVLQRTPGSNAEESSILETVTAVAAGKPLSCPNHDGNVMEFYCQSCETAMCRECTEGEHAEHPTVPLKDVVEQHKASLQVQLDAVNKRLPEIDSALQFISEIIHQLTNQKASIVDDIHSTFDELQKTLNVRKSVLLMELEVNYGLKHKVLQSQLDTLLQGQESIKSCSNFTAQALNHGTETEVLLVKKQMSEKLNELADQDFPLHPRENDQLDFIVETEGLKKSIHNLGTILTTNAVASETVATGEGLRQTIIGQPMSVTITTKDKDGELCKTGNAYLTAELSTPDGSVADGEILDNKNGTYEFLYTVQKEGDFTLSLRLYDQHIRGSPFKLKVIRSADVSPTTEGVKRRVKSPGSGHVKQKAVKRPASMYSTGKRKENPIEDDLIFRVGTKGRNKGEFTNLQGVAASTNGKILIADSNNQCVQIFSNDGQFKSRFGIRGRSPGQLQRPTGVAVHPSGDIIIADYDNKWVSIFSSDGKFKTKIGSGKLMGPKGVSVDRNGHIIVVDNKACCVFIFQPNGKIVTRFGSRGNGDRQFAGPHFAAVNSNNEIIITDFHNHSVKVFNQEGEFMLKFGSNGEGNGQFNAPTGVAVDSNGNIIVADWGNSRIQVFDGSGSFLSYINTSADPLYGPQGLALTSDGHVVVADSGNHCFKVYRYLQ
B2: TRIM1: human RING type E3 ligase expressed from lentiviral vector (protein, UniProt Q9UJV3 1-735, looked up)
Probable E3 ubiquitin-protein …: MGESPASVVLNASGGLFSLKMETLESELTCPICLELFEDPLLLPCAHSLCFSCAHRILVSSCSSGESIEPITAFQCPTCRYVISLNHRGLDGLKRNVTLQNIIDRFQKASVSGPNSPSESRRERTYRPTTAMSSERIACQFCEQDPPRDAVKTCITCEVSYCDRCLRATHPNKKPFTSHRLVEPVPDTHLRGITCLDHENEKVNMYCVSDDQLICALCKLVGRHRDHQVASLNDRFEKLKQTLEMNLTNLVKRNSELENQMAKLIQICQQVEVNTAMHEAKLMEECDELVEIIQQRKQMIAVKIKETKVMKLRKLAQQVANCRQCLERSTVLINQAEHILKENDQARFLQSAKNIAERVAMATASSQVLIPDINFNDAFENFALDFSREKKLLEGLDYLTAPNPPSIREELCTASHDTITVHWISDDEFSISSYELQYTIFTGQANFISKSWCSWGLWPEIRKCKEAVSCSRLAGAPRGLYNSVDSWMIVPNIKQNHYTVHGLQSGTRYIFIVKAINQAGSRNSEPTRLKTNSQPFKLDPKMTHKKLKISNDGLQMEKDESSLKKSHTPERFSGTGCYGAAGNIFIDSGCHYWEVVMGSSTWYAIGIAYKSAPKNEWIGKNASSWVFSRCNSNFVVRHNNKEMLVDVPPHLKRLGVLLDYDNNMLSFYDPANSLHLHTFDVTFILPVCPTFTIWNKSLMILSGLPAPDFIDYPERQECNCRPQESPYVSGMKTCH
B3: TRIM8: human RING type E3 ligase expressed from lentiviral vector (protein, UniProt Q9BZR9 1-551, looked up)
E3 ubiquitin-protein ligase …: MAENWKNCFEEELICPICLHVFVEPVQLPCKHNFCRGCIGEAWAKDSGLVRCPECNQAYNQKPGLEKNLKLTNIVEKFNALHVEKPPAALHCVFCRRGPPLPAQKVCLRCEAPCCQSHVQTHLQQPSTARGHLLVEADDVRAWSCPQHNAYRLYHCEAEQVAVCQYCCYYSGAHQGHSVCDVEIRRNEIRKMLMKQQDRLEEREQDIEDQLYKLESDKRLVEEKVNQLKEEVRLQYEKLHQLLDEDLRQTVEVLDKAQAKFCSENAAQALHLGERMQEAKKLLGSLQLLFDKTEDVSFMKNTKSVKILMDRTQTCTSSSLSPTKIGHLNSKLFLNEVAKKEKQLRKMLEGPFSTPVPFLQSVPLYPCGVSSSGAEKRKHSTAFPEASFLETSSGPVGGQYGAAGTASGEGQSGQPLGPCSSTQHLVALPGGAQPVHSSPVFPPSQYPNGSAAQQPMLPQYGGRKILVCSVDNCYCSSVANHGGHQPYPRSGHFPWTVPSQEYSHPLPPTPSVPQSLPSLAVRDWLDASQQPGHQDFYRVYGQPSTKHYVTS
B4: RNF113: human RING type E3 ligase expressed from lentiviral vector (protein, UniProt O15541 2-343, looked up)
E3 ubiquitin-protein ligase …: AEQLSPGKAVDQVCTFLFKKPGRKGAAGRRKRPACDPEPGESGSSSDEGCTVVRPEKKRVTHNPMIQKTRDSGKQKAAYGDLSSEEEEENEPESLGVVYKSTRSAKPVGPEDMGATAVYELDTEKERDAQAIFERSQKIQEELRGKEDDKIYRGINNYQKYMKPKDTSMGNASSGMVRKGPIRAPEHLRATVRWDYQPDICKDYKETGFCGFGDSCKFLHDRSDYKHGWQIERELDEGRYGVYEDENYEVGSDDEEIPFKCFICRQSFQNPVVTKCRHYFCESCALQHFRTTPRCYVCDQQTNGVFNPAKELIAKLEKHRATGEGGASDLPEDPDEDAIPIT
B5: TRIM6: human RING type E3 ligase expressed from lentiviral vector (protein, UniProt Q9C030 1-488, looked up)
Tripartite motif-containing …: MTSPVLVDIREEVTCPICLELLTEPLSIDCGHSFCQACITPNGRESVIGQEGERSCPVCQTSYQPGNLRPNRHLANIVRRLREVVLGPGKQLKAVLCADHGEKLQLFCQEDGKVICWLCERSQEHRGHHTFLVEEVAQEYQEKFQESLKKLKNEEQEAEKLTAFIREKKTSWKNQMEPERCRIQTEFNQLRNILDRVEQRELKKLEQEEKKGLRIIEEAENDLVHQTQSLRELISDLERRCQGSTMELLQDVSDVTERSEFWTLRKPEALPTKLRSMFRAPDLKRMLRVCRELTDVQSYWVDVTLNPHTANLNLVLAKNRRQVRFVGAKVSGPSCLEKHYDCSVLGSQHFSSGKHYWEVDVAKKTAWILGVCSNSLGPTFSFNHFAQNHSAYSRYQPQSGYWVIGLQHNHEYRAYEDSSPSLLLSMTVPPRRVGVFLDYEAGTVSFYNVTNHGFPIYTFSKYYFPTTLCPYFNPCNCVIPMTLRRPSS
B6: TRIM9: human RING type E3 ligase expressed from lentiviral vector (protein, UniProt Q9C026 1-710, looked up)
E3 ubiquitin-protein ligase …: MEEMEEELKCPVCGSFYREPIILPCSHNLCQACARNILVQTPESESPQSHRAAGSGVSDYDYLDLDKMSLYSEADSGYGSYGGFASAPTTPCQKSPNGVRVFPPAMPPPATHLSPALAPVPRNSCITCPQCHRSLILDDRGLRGFPKNRVLEGVIDRYQQSKAAALKCQLCEKAPKEATVMCEQCDVFYCDPCRLRCHPPRGPLAKHRLVPPAQGRVSRRLSPRKVSTCTDHELENHSMYCVQCKMPVCYQCLEEGKHSSHEVKALGAMWKLHKSQLSQALNGLSDRAKEAKEFLVQLRNMVQQIQENSVEFEACLVAQCDALIDALNRRKAQLLARVNKEHEHKLKVVRDQISHCTVKLRQTTGLMEYCLEVIKENDPSGFLQISDALIRRVHLTEDQWGKGTLTPRMTTDFDLSLDNSPLLQSIHQLDFVQVKASSPVPATPILQLEECCTHNNSATLSWKQPPLSTVPADGYILELDDGNGGQFREVYVGKETMCTVDGLHFNSTYNARVKAFNKTGVSPYSKTLVLQTSEVAWFAFDPGSAHSDIILSNDNLTVTCSSYDDRVVLGKTGFSKGIHYWELTVDRYDNHPDPAFGVARMDVMKDVMLGKDDKAWAMYVDNNRSWFMHNNSHTNRTEGGITKGATIGVLLDLNRKNLTFFINDEQQGPIAFDNVEGLFFPAVSLNRNVQVTLHTGLPVPDFYSSRASIA
B7: RNF141: human RING type E3 ligase expressed from lentiviral vector (protein, UniProt Q8WVD5 2-230, looked up)
RING finger protein 141: GQQISDQTQLVINKLPEKVAKHVTLVRESGSLTYEEFLGRVAELNDVTAKVASGQEKHLLFEVQPGSDSSAFWKVVVRVVCTKINKSSGIVEASRIMNLYQFIQLYKDITSQAAGVLAQSSTSEEPDENSSSVTSCQASLWMGRVKQLTDEEECCICMDGRADLILPCAHSFCQKCIDKWSDRHRNCPICRLQMTGANESWVVSDAPTEDDMANYILNMADEAGQPHRP
B8: RNF214: human RING type E3 ligase expressed from lentiviral vector (protein, UniProt Q8ND24 2-703, looked up)
RING finger protein 214: AASEVAGVVANAPSPPESSSLCASKSDEGLPDGLSTKDSAQKQKNSPLLSVSSQTITKENNRNVHLEHSEQNPGSSAGDTSAAHQVVLGENLIATALCLSGSGSQSDLKDVASTAGEEGDTSLRESLHPVTRSLKAGCHTKQLASRNCSEEKSPQTSILKEGNRDTSLDFRPVVSPANGVEGVRVDQDDDQDSSSLKLSQNIAVQTDFKTADSEVNTDQDIEKNLDKMMTERTLLKERYQEVLDKQRQVENQLQVQLKQLQQRREEEMKNHQEILKAIQDVTIKREETKKKIEKEKKEFLQKEQDLKAEIEKLCEKGRREVWEMELDRLKNQDGEINRNIMEETERAWKAEILSLESRKELLVLKLEEAEKEAELHLTYLKSTPPTLETVRSKQEWETRLNGVRIMKKNVRDQFNSHIQLVRNGAKLSSLPQIPTPTLPPPPSETDFMLQVFQPSPSLAPRMPFSIGQVTMPMVMPSADPRSLSFPILNPALSQPSQPSSPLPGSHGRNSPGLGSLVSPHGPHMPPAASIPPPPGLGGVKASAETPRPQPVDKLEKILEKLLTRFPQCNKAQMTNILQQIKTARTTMAGLTMEELIQLVAARLAEHERVAASTQPLGRIRALFPAPLAQISTPMFLPSAQVSYPGRSSHAPATCKLCLMCQKLVQPSELHPMACTHVLHKECIKFWAQTNTNDTCPFCPTLK
B9: TRIM4: human RING type E3 ligase expressed from lentiviral vector (protein, UniProt Q9C037 1-500, looked up)
E3 ubiquitin-protein ligase …: MEAEDIQEELTCPICLDYFQDPVSIECGHNFCRGCLHRNWAPGGGPFPCPECRHPSAPAALRPNWALARLTEKTQRRRLGPVPPGLCGRHWEPLRLFCEDDQRPVCLVCRESQEHQTHAMAPIDEAFESYRTGNFDIHVDEWKRRLIRLLLYHFKQEEKLLKSQRNLVAKMKKVMHLQDVEVKNATQWKDKIKSQRMRISTEFSKLHNFLVEEEDLFLQRLNKEEEETKKKLNENTLKLNQTIASLKKLILEVGEKSQAPTLELLQNPKEVLTRSEIQDVNYSLEAVKVKTVCQIPLMKEMLKRFQVAVNLAEDTAHPKLVFSQEGRYVKNTASASSWPVFSSAWNYFAGWRNPQKTAFVERFQHLPCVLGKNVFTSGKHYWEVESRDSLEVAVGVCREDVMGITDRSKMSPDVGIWAIYWSAAGYWPLIGFPGTPTQQEPALHRVGVYLDRGTGNVSFYSAVDGVHLHTFSCSSVSRLRPFFWLSPLASLVIPPVTDRK

tested on: coxsackievirus B3 (CVB3-GFP); type: cell-based; details: HeLa cells, GFP-positive cells within RFP-positive gate, replicate R1

Row | Molecule | Percent Infected R1 [%]
1 | B1 | 62.1
2 | B2 | 82.1
3 | B3 | 70.1
4 | B4 | 92
5 | B5 | 67.4
6 | B6 | 81.3
7 | B7 | 87.2
8 | B8 | 93.9
9 | B9 | 67.8

same assay, conditions: HeLa cells, replicate R1

Row | Molecule | Z score R1
10 | B1 | −0.337
11 | B2 | −0.083
12 | B3 | −0.235
13 | B4 | 0.043
14 | B5 | −0.27
15 | B6 | −0.093
16 | B7 | −0.02
17 | B8 | 0.067
18 | B9 | −0.265
